The values below come from paper PMC3986562.

One assay has as its target G-Actin (UniProt P68135).
Assay [1] addresses F-Actin (UniProt P68135). The assay can be described thus: co-sedimentation; Actin pre-polymerized, sedimentated and then incubated with Simiate or the control protein; 100,000 g for 1 h; supernatant and pellet by SDS-PAGE.
Assay [2] has as its target F-Actin (UniProt P68135). Kind of assay: co-sedimentation; G-Actin polymerized 2.5 h at 25°C in polymerization buffer (5 mM Tris pH 8.0, 0.2 mM CaCl2, 1 mM ATP, 0.5 mM DTT, 5 mM KCl, 2 mM MgCl2) with equal amounts (0.125 μg/μl) of Simiate or GST; 100,000 g for 1 h; supernatant and pellet by SDS-PAGE.

Regarding recombinant Simiate (natural protein), in the assay with G-Actin, the decrease in amount of Actin polymerized after a period of 3 h (sedimentation assay), against Actin alone worked out at 29%. The results for the percent of the total Simiate content in the sediment in the assay with F-Actin [1] and with F-Actin [2] were 50.8% and 51.4%, respectively.
